Laboratory results from the RNAGym collection of RNA variant scans (doi:10.1073/pnas.2313332121).

B1: TPR t1 (parent)
chain: GACCAAUCUGCCCUCAGAGCUCGAGAACAUCUUCGGAUGCAGAGGAGGCAGGCUUCGGUGGCGCGAUAGCGCCAACGUCCUCAACCUCCAAUGCAUCCCACCACAUGAUGAUGCCUGAAGAGCCUUGGUUUUUUG

Variants of: B1
Assay: polymerase ribozyme fitness, log enrichment relative to wild type (log ratio); higher = more active; in vitro selection for triplet polymerase activity
In short: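 Both subunits of a heterodimeric triplet polymerase ribozyme were given their own mutant library, built by PCR and transcribed. Each library was annealed with a biotinylated primer, the partner subunit and triplets, incubated frozen at −7 °C, and its extended constructs gel-excised, captured on streptavidin beads and amplified by RT-PCR, all in one round done in triplicate. Fitness is the logarithm of genotype enrichment relative to wild-type enrichment, with replicates averaged by inverse-variance weighting. That logarithm is base 2, and Illumina-sequenced genotypes needed ≥10 input reads and ≥1 read per output.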

Variant	polymerase ribozyme fitness (log ratio)
GACCAAUCUGCCCUCAGAGCUCGAGAACAUCUUCGGAUGCAGAGGAGACAGGCUUCGGUGGCGCGAUAGCGCCAACGUCCUCAACCUCCAAUGCAUCCCACCACAUGAUGAUGCCUAAAGAGCCUUGGUUUUUUG	-2.44
GACCAAUCUGCCCUCAGAGCUCGAGAACAUCUUCGGAUGCAGAGGAGACAGGCUUCGGUGGCGCGAUAGCGCCAACGUCCUCAACCCCCAAUGCAUCCCAACACUUGAUGAUGCCUGAAGAGCCUUGGUUUUUUG	-3.9
GACCAAUCUGCCCUCAGAGCUCGAGAACAUCUUCGGAUGCAGAGGAGACAGGCUUCGGUGGCACGAUAGCGCCAACGUCCUCAACCUCCAAUGCAUACCACCACAUGAUGACGCCUGAAGAGCCUUGGUUUUUUG	-4.92
GACCAAUCUGCCCUCAGAGCUCGAGAACAUCUUCGGAUGCAGAGGAGACAGGCUUCGGUGGCUCGAUAGCGCCAACGUCCUCAACCUUCAAUGCAUCCCACCACAUGAUGAUGCCUGAAGAGCCUUGGUUUUUUG	-1.66
GACCAAUCUGCCCUCAGAGCUCGAGAACAUCUUCGGAUGCAGAGGAGACAGGCUUCGGUGGCGCGAUAUCGCCAACGUCCUCAACCUCCAAUGCAUCGCACCACAUGAUGAUGCCUGAAGAGCCAUGGUUCUUUG	-3.58
GACCAAUCUGCCCUCAGAGCUCGAGAACAUCUUCGGAUGCAGAGGAGACAGGCUUCGGUGGCGCGAUAGCGCCAACGACCUCAACCUCCAAUGCAUCUCACCACAUGAUGAUGCCUGAAGAGCCUUGGUUUUUUG	-1.75
GACCAAUCUGCCCUCAGAGCUCGAGAACAUCUUCGGAUGCAGAGGAGACAGGCUUCGGUGGCUCGAUAGCGCCAACGUCCUCAGCCUCCAAUGCAUCCCACCACAUGAUGAUGCCUGAAGAGCCUUGUUUUUUUG	-3.63
GACCAAUCUGCCCUCAGAGCUCGAGAACAUCUUCGGAUGCAGAGGAGACAGGCUUCGGUGGCGCGAUAGCGCCAACGUCCUCAACCUCCAAUGCAUCCCACCACAUGAUGAUCCCUGAAGAGCCUUGGUUUUUUG	-2.26
GACCAAUCUGCCCUCAGAGCUCGAGAACAUCUUCGGAUGCAGAGGAGACAGGCUUCGGUGGCGCGAUAUCGCCAACGUCCUGAACCUCCAAUGCAUCCCACCACAUGAUGAUUCCUGAAGAGCCUUGGUUUAUUG	-2.33
GACCAAUCUGCCCUCAGAGCUCGAGAACAUCUUCGGAUGCAGAGGAGACAGGCUUCGGUGGCGCGAUAGCGCCAACGUCCUCAACCUCCAAUACAUCCCACCACAUGAUGAUGGCUGAAGAGCCUUGGUUUUUUG	-3.84
GACCAAUCUGCCCUCAGAGCUCGAGAACAUCUUCGGAUGCAGAGGAGACAGGCUUCGGUGGCGCGAUAGCGCCAACGUCCUCAACCUCCAAUGCAUCCCACCACAUGAUGAUGCCUGAAGAGCCUUGGUAUUUUG	-1.78
GACCAAUCUGCCCUCAGAGCUCGAGAACAUCUUCGGAUGCAGAGGAGACAGGCUUCGGUGGCGCGAUAGCACCAACGUCCUCAACCUCCAAUGCAUCCCACCACAUGAUGAUGCCUGAAGAGCCUUGGUUUUUUG	-1.09
GACCAAUCUGCCCUCAGAGCUCGAGAACAUCUUCGGAUGCAGAGGAGCCGGGUUUCGGUGGCGCGAUAGCGCGAACGUCCUCAACCUCCAAUGCAUCCCACCACAUGAUGAUGCCUGAAGAGCCUUGGUUUUUUG	-1.36
GACCAAUCUGCCCUCAGAGCUCGAGAACAUCUUCGGAUGCAGAGGAGACAGGCUUCGGUGGCGCGAUAGCGCCAACGUCCUCAACCUCCAAAGCAUCCCACCACAUGAUGAUGCCUGAAGAGCCUUGGUUUUUUG	-3.51
GACCAAUCUGCCCUCAGAGCUCGAGAACAUCUUCGGAUGCAGAGGAGACAGGCUUCGGUGGCGCGAUAGCACCAACGUCCUCAACCUCCAAUGCAUCCCACAACAUGAUGAUGCCUGAAGAGCCUUGGUUUUUUG	-3.85
GACCAAUCUGCCCUCAGAGCUCGAGAACAUCUUCGGAUGCAGAGGAGACAGGCUUCGGUGGCGCGAUAGCGCCAACGUCCUCAACCUCCAAUCCAUCCCACCACAUGAUGAUGACUGAAGAGCCUUGGUUUUUUG	-2.27
GACCAAUCUGCCCUCAGAGCUCGAGAACAUCUUCGGAUGCAGAGGAGACAGGCUUCGGUGGCUCGAUAGCGCCAACGUCCUCAACCUCCAAUGCAUCCCACCACAUGAUGAUACCUGAAGAGCCUUGGUUUUUUG	-2.17
GACCAAUCUGCCCUCAGAGCUCGAGAACAUCUUCGGAUGCAGAGGAGCCGUGCUUGGGUGGCGCGAUAGCGCCAACGUCCUCAACCUCCAAUGCAUCCCACCACAUGAUGAUGCCUAAAGAGCCUUGGUUUUUUG	-5.49
GACCAAUCUGCCCUCAGAGCUCGAGAACAUCUUCGGAUGCAGAGGAGACAGGCUUCGGUGGCGCGAUAGCGCCAACGUCCACAACCUCCAAUGCAUCCCACUACAUGAUGAUGCCUGAAGAGCCUUGGUUUUUUG	-4.06
GACCAAUCUGCCCUCAGAGCUCGAGAACAUCUUCGGAUGCAGAGGAGACAGGCGUCGGUGGCGCGAUAGCUCCAACGUCCUCAAUCUCCAAUGCAUCCCACCACAUGAUGAUGCCUGAAGAGCCUUGGUUUUUUG	-4.47
GACCAAUCUGCCCUCAGAGCUCGAGAACAUCUUCGGAUGCAGAGGAGACAGGCUUCGGUGGCGCGAUAGCGCCAACGUCCUCAACCUCCAAUGCAUCCCACCACAUAAUGAUGCCUGAAGAGCCUUGGUUUUUUG	-7.39
